This is an account of results in PMC4234289, “The LexA regulated genes of the Clostridium difficile” (BMC Microbiology, 2014).

In the experiment the target is T1, C. difficile RecA, activated (RecA*) (Clostridium difficile 630, UniProt Q18BJ4 1-348).
T1 construct: Protein RecA (recombinase A) of Clostridium difficile strain 630; also called RecA* (CD); source: E. coli BL21 (DE3), purified (Ni-NTA, PD10 desalting)
T1 sequence (looked up): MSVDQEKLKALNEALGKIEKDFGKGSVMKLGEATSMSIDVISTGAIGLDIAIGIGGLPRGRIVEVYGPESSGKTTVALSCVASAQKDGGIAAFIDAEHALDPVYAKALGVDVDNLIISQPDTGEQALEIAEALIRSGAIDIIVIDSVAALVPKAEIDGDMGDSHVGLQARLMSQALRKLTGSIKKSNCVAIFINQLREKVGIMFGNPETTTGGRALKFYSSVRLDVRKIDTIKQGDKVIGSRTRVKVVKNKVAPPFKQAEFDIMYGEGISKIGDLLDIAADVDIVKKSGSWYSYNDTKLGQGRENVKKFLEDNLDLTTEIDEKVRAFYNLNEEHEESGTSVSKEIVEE
The experiment can be described thus: SPR; Biacore X, 25°C; RecA* immobilised on the chip (~2000 response units); LexA (2.6 μM) incubated with non-specific 22-bp DNA (recA operator with six nucleotides changed, 1.4-8.1 μM) passed over at 10 μl/min for 60 s; 20 mM NaH2PO4 pH 7.4, 150 mM NaCl, 2 mM MgCl2, 1 mM DTT, 1 mM ATP, 0.005% P20. To be noted: both partners purified.

B1: C. difficile LexA repressor (natural protein, Clostridium difficile 630, UniProt Q187P1 1-211, looked up)
chain: MYLDLTEKQVLILEFIKSQIILKGYPPAVREICTAVGLRSTSTVHSHLNKLEKLGYIRKDPTKPRAIEVLERSKVNDVSGANQEIIELPLVGQITAGEPILAQQNIEEYIPFPASLVKGSNNFVLRVKGESMINAGILDEDYVVVDKKNTALNSQIVVALINGESATVKRFFKEGNLIRLQPENDFMEPIMLNDSEVEIVGIVTGVFRVIK
notes: LexA repressor of Clostridium difficile strain 630; In the SPR with RecA* LexA was pre-incubated with 22-bp DNA; also called LexA (CD); DinR; source: E. coli BL21 (DE3), purified (Ni-NTA, PD10 desalting)
B1: the binding result is reported as “binds”.
